Columns and labels:
MS2 coat protein [1] = assay: apparent KD of MS2 coat protein, switch OFF state (with FMN for OFF switches, without FMN for ON switches); designed switch direction (-1 OFF switch, 1 ON switch): -1; higher = weaker reporter binding; conditions: FMN input: 0 or 200 uM; Eterna round: R93 (includes R88 designs)
Summary of the method: (§1)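 For every design, apparent KD is the median of normalised binding-curve fits from its clusters. The RNA switches were transcribed on-chip from Illumina sequencing clusters and titrated with SNAP-549-labelled MS2 coat protein (twofold steps, 0.7 or 1.5 nM to 3 µM; 0.8–1.5 h to 10–20 min per step). Titrations used 100 mM Tris-HCl pH 7.5, 80 mM KCl, 4 mM MgCl2, without or with constant ligand.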

MS2 coat protein [2] = assay: apparent KD of MS2 coat protein, switch ON state; designed switch direction (-1 OFF switch, 1 ON switch): -1; higher = weaker reporter binding; conditions: FMN input: 0 or 200 uM; Eterna round: R93 (includes R88 designs)
Summary of the method: as §1

Sequence	apparent KD of MS2 coat protein (MS2 coat protein [1]) [nM]	apparent KD of MS2 coat protein (MS2 coat protein [2]) [nM]
AACUGACAUGAGGAUCACCCAUGUCAGGAUAUGAUAUGUAAAAAAAAAAAAAUACUUAUCAGAAGGGACAUGGA [Design 42: Sub-opt BB]	30	22.8
AACUGACAUGAGGAUCACCCAUGUCAGGAUAUGAUAUGUAAAAAAUAAAAAAUACUUAUCAGAAGGGACAUGAA [Design 43: Sub-opt C]	14.4	15.8
AAGAAACAUGAGGAUCACCCAUGUCAGGAUAUCCAAGAAAGAAAGAAAGAAAGAAGAAGGAGAAGGGACAAAGG [Lucius Antonius Pedo]	67.3	64.8
AAGAAACAUGAGGAUCACCCAUGUGAGGAUAUGGAAGAAAGAAAGAAAGAAAGAAGAACCAGAAGGCACAAAGG [Publius Rubrius Barbarus]	105	144
AAGAAACUAGGAUAUACAAGGAAGAAAGAAAAGAAAAGAAAACAUGAGGAUCACCCAUGUAGAAGGAGUUAGAA [EteRNA is fun!]	31.3	36.3
AAGAACAUAGGAUAUACAAGGAAGAAAGAAAAGAAAAGAAAACAUGAGGAUCACCCAUGUAGAAGGAUGUAGAA [EteRNA is fun!]	24.8	24.4
AAGAACCUAGGAUAUACUUGGGUAACUAAUAAACUGAUAUAACAUGAGGAUCACCCAUGUAGAAGGAGGAGAAA [JR_Exc002_Sub204]	62.4	50.1
AAGAACGGAGGAUAUACAUGAGGAUCACCCAUGUAAAAGAAAGAGGGAAAAGAGAAAAGUAGAAGGCCGAAGAA [Haaibre Alexander IV]	60.3	28
AAGAACUCAGGAUAUACAAAAUAAAAGAAAAGAAAGAAAGAACAUGAGGAUCACCCAUGUAGAAGGGAGAAGAA [Sobekkare Sobekneferu]	32.4	61.2
AAGAACUCAGGAUAUACAUGAGGAUCACCCAUGUAAAAGAAAGAAGGGAAAGAGAAAAGUAGAAGGGAGAAGAA [Niumateped]	23.8	17.5
AAGAAGACAGGAUAUACAUGAGGAUCACCCAUGUAAAAGAAAGAAAGGGAAAAGAAAAGUAGAAGGGUCAAGAA [Khepermaatre-setpenptah Ramesses X]	51.4	37.6
AAGAAGCGAGGAUAUACAUGAGGAUCACCCAUGUAAAAGAAAGAAAAGGGAAAGAAAAGUAGAAGGCGCAAGAA [Nebpehtire Ahmose I, Ahmosis I]	177	53
AAGAAGGCAGGAUAUACAUGAAAGAAAGAAAAGAAAAGAAAACAUGAGGAUCACCCAUGUAGAAGGGCCAAGAA [EteRNA is fun!]	109	29.8
AAGAAGGUAGGAUAUACAUGAGGAUCACCCAUGUAAAAGAAAGAAGGGAAAGAGAAAAGUAGAAGGACCAAGAA [Rudamon]	55.3	33.4
AAGAAGUCAGGAUAUGCGAAGGCGUCUGAUAGACGAGGCUAGCAGAAGGGACAUGAGGAUCACCCAUGUAAAGA [Mat - Exclusion 4 - D83]	55	45
AAGAAGUCAGGAUAUGCUAAAGAAAUAAAAAGAAAGAAAGAACAUGAGGAUCACCCAUGUAGAAGGGACAAGAA [Seheqenre Sankhptahi]	38.9	72.9
AAGAAGUCAGGAUAUGCUGAUAGUAAAUUGAGUGAUGAGUAGCAGAAGGGACAUGAGGAUCACCCAUGUAAAGA [Opal 12]	32.6	45.4

Sequence	apparent KD of MS2 coat protein (MS2 coat protein [1]) [nM]	apparent KD of MS2 coat protein (MS2 coat protein [2]) [nM]
AAGAAGUGAGGAUAUACAUGAAAGAAAGAAAAGAAAAGAAAACAUGAGGAUCACCCAUGUAGAAGGCACAAGAA [EteRNA is fun!]	27.6	28.7
AAGAAGUGAGGAUAUCGAAGACAGACGAAAAGUCUGUCAAACGAGAAGGCACAUGAGGAUCACCCAUGUAAGAA [What have we learned so far?]	43.7	34.8
AAGAAGUGAGGAUAUCGAAGACAGACGAAAAGUCUGUCAAACGAGAAGGCACAUGAGGAUCACCCAUGUGGGAG [Mat - Exaclusion 4 - Eli mod - D74]	277	114
AAGAAGUGAGGAUAUCGAAGACUGUCGAAAAGACAGUCGAACGAGAAGGCACAUGAGGAUCACCCAUGUGAGAG [Mat - Exaclusion 4 - Eli mod - D66]	46.2	31.9
AAGAAGUGAGGAUAUGCUGACAAUAUGAAGACUUGAGGUAUGCAGAAGGCACAUGAGGAUCACCCAUGUAAGAA [JR_Exclusion4_Sub4]	23.6	27.4
AAGAAUGCAGGAUAUACAAGAAAGAAAGAAAAGAAAAGAAAACAUGAGGAUCACCCAUGUAGAAGGGCAUAGAA [EteRNA is fun!]	25	32.6
AAGAAUGCAGGAUAUACAUGAGGAUCACCCAUGUAAAAGAAAGAAAAGGGAAAGAAAAGUAGAAGGGCAAAGAA [Satre-merenamun Tausret]	30.5	29.6
AAGAAUGUAGGAUAUACAAGGAAGAAAGAAAAGAAAAGAAAACAUGAGGAUCACCCAUGUAGAAGGACAUAGAA [EteRNA is fun!]	18.2	23.6
AAGACUACAGGAUAUACAUGAGGAUCACCCAUGUAACUGACAAGCAGAGUACGGAGAAGUAGAAGGGUAGUCAA [Ruby 33]	30.1	20.3
AAGAUGUCAGGAUAUGCUGCUCGUCACGAAAGUGAUGAGUAGCAGAAGGGACAUGAGGAUCACCCAUGUAAAGA [Exclusion 4.1c (Exclusion4-cac2 - mutated U at 5)]	140	112
AAGGGACAUGAGGAUCACCCAUGUCAGGAUAUGAUGCGAAUAAAGAAAGAAGAAAGCAUCAGAAGGGACAAAAA [58%, Disencluded 3, 3]	57.6	33.7
AAGGUUGGAGGAUAUACAUAGAUACAGAUACAUGUAGACGUACAUGAGGAUCACCCAUGUAGAAGGCCAAUAUA [Mat - Same state - Mayanna Mod - D146]	88.6	137
AAGUAGCUAGGAUAUACAUAGAUACAGAUUCAUGUAGAACUACAUGAGGAUCACCCAUGUAGAAGGAGCUAAUA [AJ 35]	60.3	31.4
AAGUUGGUAGGAUAUACGUGCAAUUGGUGUGUCCGGAAAAAACAUGAGGAUCACCCAUGUAGAAGGACCAAAAA [Quonmabi]	36.3	47.5
AAUAAACAUGAGGAUCACCCAUGUGAGGAUAUACAGAUUAUAAGAAAAAAAAAAAAAAGUAGAAGGCACAUAUA [Default title]	45.9	17.6
AAUAAGUCAGGAUAUGCGAAUAGAAGAUAAGAUACCCAAAAGCAGAAGGGACAUGAGGAUCACCCAUGUAAAUA [JR_Exc004_Sub010]	25.6	31.1
AAUAGUGAAGGAUAUACAGGAGAAGAAAGAUAAAAGAAAGAACAUGAGGAUCACCCAUGUAGAAGGUCAGAAGU [JR_Exc002_Sub1229]	19.9	27.1
